Measured values reported in patent US20220380471A1 (US Dept. of Health and Human Services, published 2022).

B1: RWB12 (VHH)
VHH: QVQLVESGGGSVQVGGSLRLSCAASGFTYNSYSVGWFRQAPGKEREGVAAINSGGSSTYYAASVKGRFTISRDNAKNTVYLQMNSLKPEDTAMYYCAARSPSPLTFQTRTLREDSYNYWGQGTQVTVSS
notes: Camel VHH; tag not described; also called camel antibody RWB12
B2: RWG4 (VHH)
VHH: QVQLVQSGGGLVQPGGSLRLSCAASGFTFSVYWFYWVRQAPRQGLEWVSTIASNGSTYYSDSVKGRFTISRDNAKNTVYLQMNSLKPEDTAVYYCVSDPDYYSDYERAYKFWAQGTQVTVSS
notes: Camel VHH; tag not described; also called camel antibody RWG4
B3: RWC4 (VHH)
VHH: EVQLVESGGGSVQAGGSLRLSCVASEDSTSAMCMGWFRQAPGKEREGVACINPTGEVTWYGDSVKGRFTISRDTVKKIVYLQMNSLKPEDTAMYYCAARVTYGGDWSTDTDYEYWGQGTQVTVSS
notes: Camel VHH; tag not described; also called camel antibody RWC4
B4: RWG8 (VHH)
VHH: DVQLVESGGGLVQPGGSLRLSCAASGFTFSRYWMGWFRQAPGKGVEWVSTINSGGGSTYYADSVKGRFTISRDNAKNTLYLQLNNLKTEDTAMYYCAKEQWRTGSRGQGTQVTVSS
notes: Camel VHH; tag not described; also called camel antibody RWG8

What was measured:
Irrelevant antigen [1] = molecular target: T1, Irrelevant antigen; experiment: ELISA; row Irrelevant antigen; well 2 of 3
T1 construct: negative control
Summary of the method: (§1)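 The values are ELISA signals for binding of purified camel VHH nanobodies to immobilised recombinant B7H3 fusion proteins and to non-B7H3 comparison proteins. The nanobodies came from phage panning on recombinant B7H3-Fc.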

Irrelevant antigen [2] = molecular target: T1, Irrelevant antigen; experiment: ELISA; row Irrelevant antigen; well 1 of 3
Summary of the method: as §1

hB7H3-His [3] = molecular target: T2, hB7H3-His (human, UniProt Q5ZPR3 29-461, limits assumed); experiment: ELISA; row B7H3-his; well 2 of 3
T2 construct: not shown: His tag
T2 sequence (looked up): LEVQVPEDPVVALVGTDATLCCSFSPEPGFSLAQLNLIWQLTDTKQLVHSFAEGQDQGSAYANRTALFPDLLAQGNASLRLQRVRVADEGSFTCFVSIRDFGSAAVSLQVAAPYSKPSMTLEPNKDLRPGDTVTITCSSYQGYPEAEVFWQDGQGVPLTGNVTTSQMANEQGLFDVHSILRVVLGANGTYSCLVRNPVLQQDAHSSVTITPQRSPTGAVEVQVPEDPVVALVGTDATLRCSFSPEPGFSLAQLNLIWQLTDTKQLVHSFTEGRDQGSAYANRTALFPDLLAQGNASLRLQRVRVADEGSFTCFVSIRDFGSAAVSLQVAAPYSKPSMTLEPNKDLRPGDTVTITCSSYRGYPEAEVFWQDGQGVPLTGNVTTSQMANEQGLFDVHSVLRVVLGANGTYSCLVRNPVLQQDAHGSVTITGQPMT
Summary of the method: as §1

[4] = molecular target: T3, B7H3 (CD276) on MC38-CD276+ cells; experiment: flow cytometry on MC38-CD276+ cells, VHH at 50 ug/ml
T3 construct: whole, on cells; MC38-CD276KO cells served as the negative control; also called MC38-B7H3+
T3 sequence (Q5ZPR3 1-534, species assumed, looked up): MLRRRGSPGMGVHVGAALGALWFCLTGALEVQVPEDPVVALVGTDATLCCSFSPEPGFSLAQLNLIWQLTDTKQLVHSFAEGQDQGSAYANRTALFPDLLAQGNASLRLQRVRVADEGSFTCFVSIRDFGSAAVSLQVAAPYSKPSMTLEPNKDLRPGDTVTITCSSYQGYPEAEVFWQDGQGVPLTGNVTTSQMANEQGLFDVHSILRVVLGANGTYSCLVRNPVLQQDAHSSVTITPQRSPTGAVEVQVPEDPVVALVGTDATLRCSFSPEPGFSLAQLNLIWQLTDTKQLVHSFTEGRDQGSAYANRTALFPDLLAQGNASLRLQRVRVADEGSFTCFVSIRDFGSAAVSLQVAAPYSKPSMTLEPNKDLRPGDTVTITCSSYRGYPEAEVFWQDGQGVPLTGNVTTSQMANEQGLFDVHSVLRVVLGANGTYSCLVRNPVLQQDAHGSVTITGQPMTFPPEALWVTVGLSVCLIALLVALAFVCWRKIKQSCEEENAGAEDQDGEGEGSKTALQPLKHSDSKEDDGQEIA

Non-relevant antigen = experiment: ELISA, purified VHH
Summary of the method: as §1

hB7H3-His [5] = molecular target: T2, hB7H3-His; experiment: ELISA, purified VHH
Summary of the method: as §1

rat B7H3-His = molecular target: T4, rat B7H3-His (rat, UniProt Q7TPB4 29-244, limits assumed); experiment: ELISA, purified VHH
T4 construct: not shown: His tag
T4 sequence (looked up): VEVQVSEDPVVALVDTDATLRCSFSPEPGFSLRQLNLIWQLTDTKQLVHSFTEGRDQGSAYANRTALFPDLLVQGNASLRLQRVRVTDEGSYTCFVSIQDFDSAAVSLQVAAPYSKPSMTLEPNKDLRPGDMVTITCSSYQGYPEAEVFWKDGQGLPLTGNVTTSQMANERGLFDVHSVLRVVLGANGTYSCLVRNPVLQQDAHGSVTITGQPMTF
Summary of the method: as §1

human B7H3 [6] = molecular target: T5, human B7H3 (human, UniProt Q5ZPR3 29-466, limits assumed); experiment: ELISA; row Human; well 3 of 3
T5 construct: also called human B7H3 protein
T5 sequence (looked up): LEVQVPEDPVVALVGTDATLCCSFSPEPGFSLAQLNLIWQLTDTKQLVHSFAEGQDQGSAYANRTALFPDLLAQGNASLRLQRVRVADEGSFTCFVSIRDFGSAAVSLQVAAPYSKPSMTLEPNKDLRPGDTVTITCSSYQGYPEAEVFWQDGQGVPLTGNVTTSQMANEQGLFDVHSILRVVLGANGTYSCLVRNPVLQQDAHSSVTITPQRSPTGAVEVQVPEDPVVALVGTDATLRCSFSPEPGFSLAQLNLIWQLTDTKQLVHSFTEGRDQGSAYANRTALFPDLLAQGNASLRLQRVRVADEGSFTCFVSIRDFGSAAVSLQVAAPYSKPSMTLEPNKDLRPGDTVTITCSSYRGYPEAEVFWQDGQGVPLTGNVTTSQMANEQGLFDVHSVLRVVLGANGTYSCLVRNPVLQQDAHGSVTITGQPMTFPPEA
Summary of the method: as §1

PD-L1 = experiment: ELISA, purified VHH, cross-reaction
Sequence of PD-L1 (Q9NZQ7 whole entry): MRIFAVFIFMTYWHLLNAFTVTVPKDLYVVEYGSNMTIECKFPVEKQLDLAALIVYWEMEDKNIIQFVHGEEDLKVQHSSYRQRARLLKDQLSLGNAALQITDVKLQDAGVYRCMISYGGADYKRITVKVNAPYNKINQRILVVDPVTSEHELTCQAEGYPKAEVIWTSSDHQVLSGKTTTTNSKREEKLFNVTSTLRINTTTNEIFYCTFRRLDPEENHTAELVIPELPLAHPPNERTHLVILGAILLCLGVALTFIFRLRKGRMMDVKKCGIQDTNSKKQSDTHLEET

[7] = molecular target: T3, B7H3 (CD276) on MC38-CD276+ cells; experiment: flow cytometry on MC38-CD276+ cells, VHH at 2 ug/ml
hB7H3-His [8] = molecular target: T2, hB7H3-His; experiment: ELISA; row B7H3-his; well 3 of 3
Summary of the method: as §1

HN3-Fc = experiment: ELISA; row HN3-Fc; well 1 of 3
Summary of the method: as §1

human B7H3 [9] = molecular target: T5, human B7H3; experiment: ELISA; row Human; well 1 of 3
Summary of the method: as §1

Binder | ELISA reading (name not given) (Irrelevant antigen [1]) | ELISA reading (name not given) (Irrelevant antigen [2]) | ELISA reading (name not given) (hB7H3-His [3]) | Positive rates [4] [%] | ELISA signal (Non-relevant antigen) | ELISA signal (hB7H3-His [5]) | ELISA signal (rat B7H3-His) | ELISA reading (name not given) (human B7H3 [6]) | ELISA signal (PD-L1) | Positive rates [7] [%] | ELISA reading (name not given) (hB7H3-His [8]) | ELISA reading (name not given) (HN3-Fc) | ELISA reading (name not given) (human B7H3 [9])
B1 | 0.0864 | 0.08 | 0.0595 | 12 | 0.0495 | 0.686 | 0.0574 | 0.199 | 0.0454 | 0.18 | 0.0946 | 0.0533 | 0.181
B2 | – | – | – | 91.5 | 0.0541 | 2.55 | 1.5 | – | 0.0614 | 23.4 | – | – | –
B3 | 0.0888 | 0.0845 | 0.0879 | 98.8 | 0.0719 | 2.44 | – | 0.938 | 0.043 | 84.7 | 0.0811 | 0.0801 | 0.976
B4 | 0.098 | 0.104 | 0.0686 | 26.5 | 0.0562 | 1.04 | 0.0696 | 0.164 | 0.0715 | 0.31 | 0.0636 | 0.05 | 0.136
